One molecule from paper PMC3076674 (Nature structural & molecular biology, 2011) can be followed below.

The target of this assay is T1, MED25 VP16-binding domain (VBD) (human, UniProt Q71SY5 390-553).
T1 sequence (looked up): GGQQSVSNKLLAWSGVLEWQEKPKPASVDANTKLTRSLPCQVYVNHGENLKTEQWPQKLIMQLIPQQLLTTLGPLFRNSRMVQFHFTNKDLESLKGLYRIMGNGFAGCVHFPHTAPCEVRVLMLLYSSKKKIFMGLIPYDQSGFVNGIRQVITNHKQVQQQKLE
Put plainly: ITC.

B1: VP16 TAD (full-length transactivation domain, amino acids 411-490) (domain or fragment, Herpes simplex virus 1, UniProt P06492 411-490, looked up)
chain: STAPPTDVSLGDELHLDGEDVAMAHADALDDFDLDMLGDGDSPGPGFTPHDSAPYGALDMADFEFEQMFTDALGIDEYGG
Molecule B1 returned a Kd of roughly 50 nM.
